Experimental data: patent US7235627B2 (Novo Nordisk A/S, priority 1996, dated 2007)

Tests used:
[1] = target: T1, cloned human GLP-1 receptor (Homo sapiens, UniProt P43220); experiment: cell-based or functional assay
[2] = target: T1, cloned human GLP-1 receptor; experiment: biochemical

T1 sequence (P43220 24-463): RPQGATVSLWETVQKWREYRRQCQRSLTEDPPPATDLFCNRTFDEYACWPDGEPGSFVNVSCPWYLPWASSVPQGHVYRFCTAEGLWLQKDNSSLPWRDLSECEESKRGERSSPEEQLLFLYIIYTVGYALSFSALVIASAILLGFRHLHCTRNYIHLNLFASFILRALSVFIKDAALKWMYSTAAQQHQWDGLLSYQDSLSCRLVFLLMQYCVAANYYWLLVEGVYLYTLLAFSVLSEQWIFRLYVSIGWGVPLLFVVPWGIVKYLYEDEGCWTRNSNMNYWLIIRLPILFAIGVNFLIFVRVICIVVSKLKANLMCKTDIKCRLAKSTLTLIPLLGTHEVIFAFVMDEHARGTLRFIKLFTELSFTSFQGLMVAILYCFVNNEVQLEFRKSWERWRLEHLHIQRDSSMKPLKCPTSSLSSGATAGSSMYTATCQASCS

| Compound | EC50, pM (stimulation of cAMP formation) [1] | EC50 [2] |
| --- | --- | --- |
| Arg^26,34Lys^38(N^ε-(ω-carboxyundecanoyl))-GLP-1(7-38)-OH (peptide) | 3.5 pM |  |
| Arg^34Lys^26(N^ε-(γ-glutamyl(N^α-hexadecanoyl)))-GLP-1(7-37)-OH (peptide) | 60 pM |  |
| CC[C@H](C)[C@H](NC(=O)[C@H](Cc1ccccc1)NC(=O)[C@H](CCC(=O)O)NC(=O)[C@H](CCCNC(=N)N)NC(=O)[C@H](C)NC(=O)[C@H](C)NC(=O)[C@H](CCC(N)=O)NC(=O)CNC(=O)[C@H](CCC(=O)O)NC(=O)[C@H](CC(C)C)NC(=O)[C@H](Cc1ccc(O)cc1)NC(=O)[C@H](CO)NC(=O)[C@H](CO)NC(=O)[C@@H](NC(=O)[C@H](CC(=O)O)NC(=O)[C@H](CO)NC(=O)[C@@H](NC(=O)[C@H](Cc1ccccc1)NC(=O)[C@@H](NC(=O)CNC(=O)[C@H](CCC(=O)O)NC(=O)[C@H](C)NC(=O)[C@@H](N)Cc1c[nH]cn1)[C@@H](C)O)[C@@H](C)O)C(C)C)C(=O)N[C@@H](C)C(=O)N[C@@H](Cc1c[nH]c2ccccc12)C(=O)N[C@@H](CC(C)C)C(=O)N[C@H](C(=O)N[C@@H](CCCNC(=N)N)C(=O)NCC(=O)N[C@@H](CCCNC(=N)N)C(=O)NCC(=O)N[C@@H](CCCCNC(=O)CCCCCCCCCCC(=O)O)C(=O)O)C(C)C [Example 16, Arg^26,34Lys^38(N^ε-(ω-carboxyundecanoyl))-GLP-1(7–38)-OH] |  | 3.5 pM |
| Arg^26,34Lys^36(N^ε-(ω-carboxyheptanoyl))-GLP-1(7-36)-OH (peptide) | 8.8 pM |  |
